Experiments:
caspase-9 = target: T1, caspase-9 (Homo sapiens, UniProt P55211); assay: cleavage of immunoprecipitated mNanog by recombinant caspase-9; format: biochemical; conditions: protein immunoprecipitated from ES cells
T1 sequence (P55211 1-416): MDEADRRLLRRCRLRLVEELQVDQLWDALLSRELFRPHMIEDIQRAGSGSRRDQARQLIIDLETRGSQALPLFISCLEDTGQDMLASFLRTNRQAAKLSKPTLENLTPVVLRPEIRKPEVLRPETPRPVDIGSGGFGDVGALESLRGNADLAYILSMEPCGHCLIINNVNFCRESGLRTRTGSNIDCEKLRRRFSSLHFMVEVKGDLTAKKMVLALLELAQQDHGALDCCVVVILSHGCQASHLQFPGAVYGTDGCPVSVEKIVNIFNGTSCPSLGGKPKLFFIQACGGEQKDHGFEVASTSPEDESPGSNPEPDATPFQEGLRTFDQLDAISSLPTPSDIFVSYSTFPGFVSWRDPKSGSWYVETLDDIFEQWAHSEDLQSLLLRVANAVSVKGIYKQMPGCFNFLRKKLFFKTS

mouse ES cells = assay: colony formation at clonal density, alkaline phosphatase staining; format: cell-based; conditions: transfected mouse ES cells, 5000 cells/cm^2, with or without LIF, 3 days

B1: D67G mNanog: caspase cleavage-resistant mutant of mouse Nanog, mutation at position 67 (protein)
chain: MSVGLPGPHSLPSSEEASNSGNASSMPAVFHPENYSCLQGSATEMLCTEAASPRPSSEDLPLQGSPGSSTSPKQKLSSPEADKGPEEEENKVLARKQKMRTVFSQAQLCALKDRFQKQKYLSLQQMQELSSILNLSYKQVKTWFQNQRMKCKRWQKNQWLKTSNGLIQKGSAPVEYPSIHCSYPQGYLVNASGSLSMWGSQTWTNPTWSSQTWTNPTWNNQTWTNPTWSSQAWTAQSWNGQPWNAAPLHNFGEDFLQPYVQLQQNFSASDLEVNLEATRESHAHFSTPQALELFLNYSVTPPGEI
B1 was tested, and the “cleavage by caspase-9” value (caspase-9) was “greatly diminished cleavage” and the “number of undifferentiated (AP-positive) colonies” value (mouse ES cells) was “substantially increased”.

— US20110263014A1, “Cleavage of Nanog by Caspases Mediates the Differentiation of Embryonic Stem Cells” (BAYLOR COLLEGE OF MEDICINE, priority 2008, published 2011)
